test: yeast display, Sf9 membrane polyspecificity reagent, FACS + sequencing; frameworks hold sequencing errors
Summary of the method: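 A nanobody's polyreactivity label depends on the gate it was sorted from. Yeast display cells were stained with 10% biotinylated, detergent-solubilized Sf9 membrane reagent for 1 hour at 4 °C, enriched on streptavidin microbeads and sorted by FACS. The low and high (top ~1%) gates were set on anti-HA fluorescence for expression and streptavidin fluorescence for reagent binding.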

Sequence | polyreactivity (PSR sort gate)
QVQLVESAGGLVQAGGSLRLTCAASGLTFRVFAMGWYRQAPGKERELVAAISSRGGSTYYADSVKGRFTISRDNAKYTVYLQMNSLKPEDTAVYDCYARGQGGYWGQGTQVTVSS | high polyreactivity
QVQLVESAGGLVQAGGSLRLTCAASGRTYFPYAMGLYRQAPGKERELVAAITWSATTTYYADSVKGRFTISRDNAKNTVYLQMISLKPEDTAVYYCNARGDYWGQGTQVTVSS | low polyreactivity
QVQLVESAGGLVQAGGSLSLSCAASGGTFSTNAMGWYRQAPGQERELVAAISLSGGRTYADSVKGRFTISLDNAKNTVYLQMNSLKPEDTAVYYCNADSAGITRARSELDYWGQGTQVTVSS | low polyreactivity
QVQLVESAGGLVQAGGSLSLSCAASGSTFASYAMGWYRQAPGKEREFVAAITRSGTSTYYADSVKGRFTISRDNAKNTVYLQMNSLKPEDTAVYYCNATRRTVGFGYWGQGTQVTVSS | high polyreactivity
QVQLVESAGGLVQAGRSHRLSFAASGSIFYHNAMGWYRQAPGKERELVAAISGRGGSTYYADSVKGRFTISRDNAKNTVYLQMNSLKPEDTAVYYCAADARYQNGGLYYWGQGTQVTVSS | high polyreactivity
QVQLVESAGGLVQAGRSLRLSCAASGRNFLGNDMGWYRQAPGKERELVAAISYGDGSTYYADSVKGRFTISRDNAKNTVYLQMNSLKPEDTAVYYCAAERYTIPPIYDYWGQGTQVTVSS | low polyreactivity
QVQLVESAGGLVQAGVSLRISCAASGSTIRHYAMGWYRQAPRKERELVAAISSGARTYYADSEKGRFTISRDNAKNTVYLQMNSLKPEDTAVYYRAARYNGYANPYYYWGQGTQVTVSS | high polyreactivity
QVQLVESAGGLVQAGVSLRLSCAASGFTSSRNAMGWYRQAPGKERELVATISSGGDTYYADSVKGRFTISRDNAKNTVYLQMNTLKPEDTAVYYCNKDPLYAWGYDYWGQGTQVTVSS | low polyreactivity
QVQLVESAGGLVQARGSLRLSCAASGINFDWYTMGWYRKAPGKERELVAAISWRGGRTYYADSVKGRFTISRDNAKNTVYLQMNSLKPEDTAVYYCAAEAPVQPFYVFNTGIYELDYWGQGTQVTVSS | low polyreactivity
QVQLVESAGGLVQEGGSLRIRCAASGRIYQLYTMGGYRQAPGKERELDAAITTGTSTSYAYSVKGRFTISRDNAKNTVYLLMYSLKPVDTAFYFCNKGSVSYYSVFVPYESDYGGQGTQVTVSS | low polyreactivity
QVQLVESAGGLVQEGGSLRLICAASGSIFEPYAMGWYRQAPGKERELVAAIRWSGGSTYYADSVKGRFTISRDNAKNTVYLQMNRLIPEDTAVYYCAKYFPAGYYYWGQGTQVTVSS | low polyreactivity
QVQLVESAGRLVQEGGSLRLRSAASGSIFKYNTMGWYRQAAGKERELVAGISYGGRTYYADSVKGRFTISRDNAKNTVYLHMNSLKPEYTAVYYCAARWSYFKTTHRNNYWGQGTQVTVSS | high polyreactivity
QVQLVESARGLVQAGGSLRLSCAASGYTIRANAMGWYRQAPGKEREFVAAISRSGGSTYYADSVKGRFTISRDNAKNTVYLQMNCLKPEDTAVYYCNNLYPYYATHTTRGLDYWGQGTQVTVSS | high polyreactivity
QVQLVESAVGLVQAGGSHRLSCAASAGTFYFYAMGWYRQAPGKERELVATITRGGSTYYADSVKGRFTISRDNAKNTVYLQMNSLNPEDTAVYYCAARQYSRRRSPVSTWYYYWGQGTQVTVSS | high polyreactivity
QVQLVESCGALVQAGGSLRLICAGSGSIFHVNAMGWSRPAHGKESELVAGISDGGSTYYADSVKGRFTISRYYAKNTVYFQMNSLKPEDSGVYYWATDYPSRWHVHRGFQGKYDYWGQGTQVTLSS | low polyreactivity
QVQLVESCGCLVQAGGSLRLSCAASGRTFFHYDMGWYRQAPGKDRELEAGISSGGRTKYADSVKGRFTISRDNAKNTVYLQMNSLNPEDTAAYYCAASYIVWLTRGAPRKRFDYWGQGSQVTVSS | high polyreactivity
QVQLVESCGGIVQAGGSLRLRCAASGFIFEYYAMVWYRQAPGKERELVAAINWGGGRTRYADSVKGRFTISPYNAKNTVYLQMNSLKPEDTAVYYCAARYGYRYDSWGQGTQVTVSS | high polyreactivity
QVQLVESCGGLFQAGGSLRLSCAPSGRTSWVYAMGWYRQAPAKERELVASIRKRTVVYADSVKGRFTISRENAKNTVYLQMNSLKPEETAVYYCNTDYSSTSQWRAANYWGQGTQVTVSS | high polyreactivity
QVQLVESCGGLIQAGGSLRLSCAASGSTFPYYAMGWYRQAPGKEREFVAAIRFSGSSTYYADSVKGRFTISRDNAMNTVFLQMNRLKPEDTAVYYCATDYWLPSYSYDYWGQGTQVTVSS | low polyreactivity
QVQLVESCGGLVQAGGSHRLSCDASGRIFTGYAMGWYRQAPGKERELVAAISWGGGRTYYADSVKGRFTISRDNAKNTVYLQMNSLKPEDTADYYCNRAAGGRSTPYYYWGQGTQVTVSS | high polyreactivity
QVQLVESCGGLVQAGGSLRLSCAASGFTFTWNAMGWYRQAPGKERELVAGITRGGSTNYADSVKGRFTISRDNAKNTVYLQMNSLKPEDTAVYYCNVSFYFHHAGYDYWGQGTQVTVSS | low polyreactivity

Sequence | polyreactivity (PSR sort gate)
QVQLVESCGGLVQAGGSLRLSCAASGFTFYLYAMGWYRQAPGQERELVAAISSRGGTTYYADSVKGRFTISRDNAKNTVYLQMNSLKPEDTAVYYCNVARFYHIYDYWGQGTQVTVSS | high polyreactivity
QVQLVESCGGLVQAGGSLRLSCAASGITFGRNTMGWYRQAPGKERELVAAIDSGGNTYADSVKGRFTISRDNAKNTVYLQMNSLKPEDTAVYYCAVDGGEFSSYGYWGQGTQVTVSS | low polyreactivity
QVQLVESCGGLVQAGGSLRLSCAASGLTFIFNAMGWYRQAPGKEREFVADISSGVNTNYADSVKGRFTISRDNAKNTVYLQMNSLKPEDTAVYYCNKDVNAYGGASIRGYTMYYWGQGTQVTVSS | low polyreactivity
QVQLVESCGGLVQAGGSLRLSCAASGRIFSDYAMGWYRQAPGKERELVATITSGDSTNYADSVKGRFTISRDNAKNTVYLQMNSLKPEDTAVYYCNADRFADYDYWGQGTQVTVSS | low polyreactivity
QVQLVESCGGLVQAGGSLRLSCAASGRTFFGYAMGGYRQAPGKERELVAAINWGGASTYYADSVKGRFTISRDNAKNTVYLQMNSLKPEETAVYYCAADSVPSRPTYGRYDYWGQGTQVTVSS | low polyreactivity
QVQLVESCGGLVQAGGSLRLSCAASGRTFYFYAMGWYRQAPGKERELVAAISSTGGSTYYADSVKGRFTISRDNAKNTVYIQMNSLKPEDTAVYYCAARKSPRGRGEFYWGQGTQVTVSS | high polyreactivity
QVQLVESCGGLVQAGGSLRLSCAASGSIIFPYALGWYRQAPGKERELVAAISWSGGRTYYADSVKGRFTISRDNAKNTVYLQMNSLKPEDTAVYYCAADGYPYFYGDFDYWGQGTQVNVSS | high polyreactivity
QVQLVESCGGLVQAGGSLRLSCAASGSTFVYYAMGWYRQAPGKERELVAAISSGGSTYYADSVKGRFTISRDNAKNTVFLQMNSLKPEDTAVYDCAAKFGWGYTTYYYCGQGTQVTVSS | high polyreactivity
QVQLVESCGGLVQAGGSLRLSCAPSGSIFVCYAMGWYRQAPWKEREFVAAITSGRGTYYADSVKGRFTRSRDNAQITVYLQMNSLKPEDTEVYYCNTVWRTRSFRAPAVAYGYWGQGTQVTVSS | high polyreactivity
QVQLVESCGGLVQAGGSLRLSCDASVSIFYRNAMGWYRQAPGKERELVAAIRSGGSTNYADSVKGRFTISRDNAKNTVYLQMNSLKPEDTAVYYCAAGYFWRQYKMGYWGQGTQVTVSS | high polyreactivity
QVQLVESCGGLVQAGGSLRLSSAASGRIFYAYVMGWYRQAPGKERELVADITSSGSTNYADTVKGRFTISRDNAKKTVYLQLISLKQEDTAVFYCAKVPYGYQVRRNFGYWGQGTQVTVSS | low polyreactivity
QVQLVESDGGLDQAGRSLRLSFAASGTIFDPYSMGWYRQEPGKERELVAAISWSDSSTYYADSVKGRFTISRDNAKNTVYLQKNSLKPEDTAVYYCASDYDLYFYLYEYWGQGTQVTVSS | high polyreactivity
QVQLVESGAALVQAGGSLRLSCAASGRTFWFNAMGWYRQPPGKERELVASISLSVGSTYYADSVKGRFTISRDNAKNTVYLQMNSLKAEDTAVYNCAADQTVHISSYDYWGQGTQVTVSS | low polyreactivity
QVQLVESGACLVQAGGSLRLSCAASGFIFPRNAMGWYRQAPGKERELVAAITKSGGSTYYADSVKGRFTISRDNAKNTVYLQMNSLKPEDTAVYYCAATDSATELYYRMDYWGQGTQVTVSS | high polyreactivity
QVQLVESGAGIVQAGGSLRLSCAASGSTFGINAMGWYRQAPGKEREFVASISWSTGTTYYADSVKGRFTISRDNAKNTVYLQRNSLKPEDTAVYYCAADSSRFYGRPRYYYWGQGTQVTVSS | high polyreactivity
QVQLVESGAGLVHAGGSLRLSCAASGNTFIDYAMGWYRQAPGKERELVASITSGGGSTYYADSVKGRFTISRDNEKNTDYLQMNSLKPEDTAVFFFAAERYNSEAIFRSYDYWGQGSQVTVSS | low polyreactivity
QVQLVESGAGLVQAAGSLRLSCDASGYIFEWNAMGWYRQAPGKERELVASIDSDGSTYYADSVKGRFTISRDNAKNTVYLQMNSLKPEDTAVYYSAKSIDGWYWRRRRYDYWGQGTQVTVSS | low polyreactivity
QVQLVESGAGLVQAGASLRLSCDASAFIYVTYAMGWYRQAPGKEMELVAAITNSGGTTYYADSVKGRFTISRDNAKNTVYLQMNSLKPEDTAVYYCNKPYGGETAHREFDYWGQGTQVTVSS | low polyreactivity
QVQLVESGAGLVQAGGSLPLSCAASGSTFPKYAMGWYRQAPGKEREFVSAITSSGGRTFYADSVKGRFTISRDNAKNTVYLQMNSLKPEDTAVYYCAAYYYSWSGAFIYEYWGQGTQETVSS | high polyreactivity
QVQLVESGAGLVQAGGSLRISCAASGFTFQKNAMGWYRQSPGKERELVAAISSSGGSTYYADSVKGRFTISRDNAKNTVYLQMNSMKPDDTAVYYCNAVTLANKYNDYGYWGQGTQVTVSS | high polyreactivity

From the nanobody polyreactivity screen of Harvey et al. (2022)
